Measurements: patent publication US11992557B2, “Collagenase loaded liposomes for enhancing drug delivery” (TECHNION RESEARCH & DEVELOPMENT FOUNDATION LIMITED, priority 2018, dated 2024)

Experiments:
Wistar rats = settings: rat, in vivo
Method: All rats were anesthetized in two stages. In the first stage the rats were anesthetized with isoflurane. In the second stage each rat was injected a mixture of Ketamine and Xylazine intraperitoneally. After each procedure, the rats were transferred and kept in an incubator, with constant oxygen flow, until they reached full recovery.
An ordinary orthodontic Ni—Ti closed coil spring (9 mm closed coil spring nickel and titanium alloy that has 2 eyelets with an inner radius of 0.76 mm) was used to connect the 1st molar in the upper pallet to the front upper incisors of the rat. The Ni—Ti coil spring was glued to the tooth (3M UNITEK), which generates constant force of 200 grams (1.96 N) when extended between 12-24 mm. The force applied in the oral cavity was the same on all the rats that participated in the experiment. […] The procedure of installing the Ni—Ti coil closed spring was performed using human orthodontics equipment and materials. The 1st upper molar and the upper incisors were dried and cleaned using cotton swabs to remove any debris that accumulates. […]
Collagenase-liposomes (see above Liposome Preparation), or a similar concentration of free collagenase, were applied directly to the sulcus. […] The distance between the eyelet of the Ni—Ti closed coil on the first molar and the back of the upper incisors was measured and recorded using the digital caliper. […]

[1] = tested on: fluorescein conjugated gelatin; experiment: Collagenase activity test in various conditions (temperature, ethanol, pH, extrusion pressure); format: biochemical
Method: Collagenase activity assay. Collagenase activity was assessed using fluorescein conjugated gelatin (ThermoFisher) as a substrate. The enzyme solution was added to the substrate solution together with a reaction buffer (0.5 M Tris-HCl, 1.5 M NaCl, 50 mM CaCl2, 2 mM sodium azide, pH 7.6). Fluorescence intensity for every sample was measured every 15 seconds for 3 minutes with excitation set at 485 nm and emission at 530 nm using the Infinite 200 PRO multimode reader (TECAN, Mannedorf, Switzerland). A linear incline was determined, and collagenase concentration was calculated using a calibration curve generated by collagenase samples of known concentrations.
Having established that collagenase's activity drops rapidly at 37 degrees (FIG. 7B), other parameters during liposome production that might affect the protein's integrity and function were examined.
Lastly, the activity of free collagenase at various pH was assayed.

[2] = tested on: human pterygium transplanted to their eyes; experiment: Free collagenase I injection to the conjunctiva of mice with transplanted human pterygium; format: in vivo; settings: 10 mg/ml by injection to the conjunctiva
Method: Pterygium is known to comprise four types of collagen: types I, II, III and IV. The stroma of pterygium and normal conjunctival tissue contains collagen types I, II, and […]. To test the ability of collagenase to break up and treat pterygium, mice that had human pterygium transplanted to their eyes were administered 10 mg/ml free collagenase I by injection to the conjunctiva.

[3] = tested on: fluorescein conjugated gelatin substrate
Method: Collagenase activity assay. Collagenase type-I activity was determined using gelatin with fluorescein conjugate as a substrate (ThermoFisher). Collagenase (100 μl) was mixed with 80 μl of reaction buffer (0.05M Tris-HCl, 0.15M NaCl, 5 mM CaCl2, 0.2 mM sodium azide at pH 7.6) and 20 μl of 0.125 mg/ml gelatin diluted in PBS. The fluorescent intensity was measured every 15 seconds over a period of 3 minutes at 485 nm and 530 nm (excitation/emission) using an Infinite 200PRO. Collagenase activity was measured at 37° C., where plasma or PBS served as control.
To test the collagenase activity, liposomal collagenase after dialysis or free collagenase in phosphate buffered saline at a concentration of 5 ug/ml, were incubated at 37° C. Every hour, a collagenase sample was assessed for its capacity to cleave a fluorescein conjugated gelatin substrate (Thermo Fisher). Activity of the released collagenase was determined in accordance to the change in fluorescence over 3 minutes, relative to the fluorescence at t=0.
In order to quantify the protective nature of liposome encapsulation versus free collagenase, both free enzyme and encapsulated enzyme were incubated in PBS or serum and protein activity was measured by Enzcheck Assay at 0, 1, 6 and 24 hours.

pancreatic tumors = experiment: Penetrance of gold nanoparticles after pretreatment of PDAC mice; settings: mouse, in vivo
Method: In order to quantify the extent to which encapsulation of collagenase in liposomes improved drug penetrance over free collagenase, PDAC mice were pretreated (intravenous injection twice, 24 hours apart) with empty liposomes, free collagenase or liposome encapsulated collagenase and then 24 hours later gold nanoparticles of various sizes. Specifically, 5, 20, and 100 nm gold nanoparticles were injected and gold penetrance to various organs was monitored 24 hours later. Liposome encapsulated collagenase increased the penetrance of 100 nm (FIG. 6B) and 20 nm (FIG. 6C) gold particles into pancreatic tumors as compared to free collagenase and empty liposomes. […] The experiment was repeated, and more organs/bodily fluids were examined, but similar results were obtained (FIG. 6E-G).

fibroblasts = experiment: Fibroblast adherence to collagen fibers during collagenase treatment; format: cell-based; settings: during collagenase treatment of the fiber
Method: Fibroblast adherence to collagen fibers. The fibroblast morphological change was recorded using The LSM 710-laser scanning confocal microscope (Zeiss) over a period of 90 minutes. The fibroblasts nuclei were stained using Hoechst 33342 (Thermo Fisher Scientific, MA, USA). The Hoechast 16.23 mM stock solution was diluted 1:2000 in Dulbecco's Phosphate Buffer Saline (DPBS, Sigma-Aldrich, St. Louis, USA) and the collagen fiber buffer was removed. 3 ul of the diluted solution was added, followed by 10 minutes light protected incubation. The staining solution was removed, and the fiber was washed 3 times in PBS.

Collagen type-I bundles = experiment: Stress/strength profile of collagen fibers exposed to proteolytic enzymes; format: biochemical, Wistar rats
Method: Stress/strength profile of collagen fibers exposed to collagenase: Collagen type-I bundles, sourced from the tails of Wistar rats, were suspended using a LLOYD LF-Plus Digital Material Tester force machine. The bundles were suspended inside a bath loaded with a buffer that simulates the composition of the oral fluid: an isotonic solution, pH 6.7 at 37° C. complemented with electrolytes including sodium, potassium, calcium, magnesium, bicarbonate, and phosphates. The bundles, 0.8-1.2 mm in diameter, were cut into two equal 4-cm sections, acting as an internal control. Collagenase type-I from Clostridium histolyticum (Sigma-Aldrich) was added at different concentrations and the stress/strength profile of the collagen fibers was recorded as a function of the collagenase treatment. The Ultimate Tensile Strength (UTS) of the collagen bundle was determined for each collagenase concentration.
Collagen regeneration SEM. Collagen bundles were mounted on carbon tape and imaged using a Zeiss UltraPlus high-resolution scanning electron microscope (HR-SEM) equipped with an Everhart-Thornley secondary electron detector. Each bundle was then cut in half. The untreated half acted as an internal control for each treated bundle. All data points are the mean of 14-20 experimental points. Collagen fibers were exposed to 0.05 mg/ml collagenase for 8 hours. Ethylenediaminetetraacetic acid (EDTA; ST. Louis, USA), 3 mM along with two drops of NH4Cl 1M buffer, were added for 30 minutes in order to retard the enzyme's activity. Subsequently, the media was removed, and the treated bundles were washed two times with new growth media to allow bundle regeneration.
Collagen fibers regain their initial mechanical strength post nano-surgery. Collagen fibers were sourced from tails of Wistar rats. Each bundle was cut in half. The untreated half acted as an internal control for each treated bundle. All presented data points are the mean of 14-20 experimental points. Collagen fibers were exposed to collagenase at concentration of 0.05 mg/ml for 8 hours in order to weaken the bundles. […] Subsequently, the media was removed, and the treated bundles were washed twice with new growth media.
Two plant-based proteolytic enzymes were also tested for their ability to relax collagen: bromelain and papain. These plant-based enzymes are not specific to collagen but have been reported to act on collagen fibers. Collagens fiber strength was tested with a force machine in the presence of 1 mg/ml collagenase, bromelain or papain. The force required to break a bundle of fibers with no treatment was set to 1, and the force required to break the treated fiber bundles was standardized to this force. […] At this same time point bromelain and papain reduced the strength of the collagen fibers such that less than 70% of the control force was needed to rupture the fibers. […] Thus, both papain and bromelain served as effective collagen relaxing enzymes, though much weaker ones than […].

PDAC collagen = experiment: Collagen analysis after ex-vivo collagenase treatment of pancreatic tumor slices; design: species or system mice; settings: PDAC treated with 0.05-0.2 mg/ml collagenase ex-vivo, Masson's trichrome
Method: Collagen analysis after the collagenase treatment. Pancreatic tumors were harvested from tumor bearing mice, six weeks after the initiation of the tumor model. Each tumor was sliced horizontally to 1 cm thick slices. All the extracted slices were mixed and randomly chosen for different treatments groups. Treatments included incubation in DMEM medium (Sigma-Aldrich) with collagenase type-I (Sigma-Aldrich) at increasing concentrations: 0.05, 0.1 or 0.2 mg/ml for either 8 or 24 hours. Following the enzymatic treatment, the tumor slices were sectioned, fixated in 10% formalin (Sigma-Aldrich) and stained with Masson's trichrome. Computerized morphometry was utilized to quantitate the fraction of the fibrotic area out of the total area of the tumor in each sample. Computerized morphometry of the collagen was used to determine fibrosis fraction within each sample. Masson's trichrome staining was performed to identify the pancreatic fibrosis. Then, stained slides were entirely scanned at magnification of X20 using the Panoramic MIDI automatic digital slide scanner (3DHistech, Budapest, Hungary). The whole slide was analyzed in Image Pro Premier 9.2 software (Media Cybernetics, MD, USA). Fibrosis area was calculated according to the blue staining within the tissue, and the tissue area was calculated by choosing the whole tissue with the machine ‘color picker tool’.

PDAC tumors = experiment: Effect of the collagenase treatment on pancreatic uptake of Gd-/iodine-liposomes; format: in vivo, C57BL/6 mice; settings: PDAC mice, Gd-liposomes after pretreatment
Method: Control groups included injections of empty liposomes (n=10 mice), free collagenase (n=5 mice) or no injection at all (n=3 mice) instead of collagenase encapsulating liposomes. […] 24 hours later, the animals were euthanized, and their organs were harvested. The amount of Gadolinium in each organ was analyzed using elemental analysis (ICP-EOS, Agilent) at wavelengths of 335.048 and 342.246 nm. The organs were harvested, weighed and then burnt at 550° C. overnight. The burnt organs were dissolved in 5 ml of 1% nitric-acid and filtered using […] filters (Millipore Millex-GV, Merck, Darmstadt, Germany). The Gd concentration in the organs was measured using an ICP-EOS elemental analysis.
Micro-CT scan. Mice were imaged using an IVIS Spectrum CT Pre-clinical in-vivo imaging system (PerkinElmer, MA, USA) with the following parameters: CT was set to 50 ms, total projections were 720, voltage was set to 50 kV while the current to 1 mA the binning was determined to 2 and the X-ray filter was set to 440 A1. Hounsfield calibration was performed in air-0.004168 and water-0.5513. Two groups of tumors bearing mice (n=5 each) were divided to control and test group. The mice were weighed weekly and tumor progression was monitored by weekly IVIS scans (PerkinElmer). […] Tumor dimensions were assessed using the ROI tool in the IVIS imaging software (Living Image, PerkinElmer).

In the case of collagenase, the “inflammation of the gingival tissue (histology)” value (Wistar rats) is reported as “mild inflammation”, the “activity of free collagenase at various pH” value [1] is reported as “Basic pH was found to result in improved collagenase activity” and the “activity of free enzyme versus temperature” value ([1]; 50 degrees or greater) is reported as “completely abrogated protein function”. The “activity of free enzyme in ethanol” value ([1]; as little as 20% ethanol) was “completely abrogated protein function”, the “protein activity versus ethanol during liposome production” value ([1]; ethanol procedure) was “Inclusion of any amount of ethanol was also found to denature the protein and reduce its activity” and the “protein activity versus extrusion force” value ([1]; ethanol procedure) was “a force above 10 bar during extrusion was found to have a negative effect on protein activity”. The “protein activity versus temperature during liposome production” value ([1]; ethanol procedure) was “temperatures above 25 began reducing protein activity”, the “effect on the eye” value [2] was “general breakdown of the eye, with extreme inflammation and damage seen throughout the eye” and the “half-life of collagenase once activated” value [3] was “several hours”. For the same substance, the “penetrance of 5 nm particles into tumors” value (pancreatic tumors) was “decreased penetrance”, the “fibroblast detachment and viability” value (fibroblasts) was “fibroblast viability was retained” and the “force needed to rupture the fibers, standardized to control force” value (Collagen type-I bundles; 1 mg/ml, 4 hours of treatment) was “almost no force”. For the same substance, the “time to degrade the collagen fibers” value (Collagen type-I bundles; 0.5 and 1 mg/mL collagenase) was “less than 10 hours”, the “initial strength profile regained by collagen fibers” value (Collagen type-I bundles; after the collagenase activity was retarded (16 h)) was about 90% and the “therapeutic window: fibers relaxed but not fully degraded” value (Collagen type-I bundles; oral physiological conditions) was 0.05 to 0.1 mg/mL. For the same substance, the “decrease of collagen fiber strength” value (Collagen type-I bundles; therapeutic dose of collagenase (0.05 mg/ml, 8 h)) was “approximately 50%”, the “level of fibrotic tissue” value (PDAC collagen) was 1.28±0.3% and the “pancreatic uptake by elemental analysis of Gd” value (PDAC tumors) was 15.1 μg-Gd/g-pancreas.
